Assay results reported in patent US5866683A, “Isoelectric point markers for isoelectric focusing with fluorescence detection” (Laboratory of Molecular Biophotonics, priority 1995, dated 1999).
Where no end group is shown, it is not given here.

Test: isoelectric focusing in polyacrylamide slab gel, mobility compared with commercial pI markers
Format: physicochemical
Settings: fluorescence-labeled (5-carboxytetramethylrhodamine) oligopeptide, carrier ampholyte pH 3.5-10, vs pI calibration kit 3-10 (range pI 9.30-3.5)
From the text: In the present invention, pI of each marker for isoelectric focusing with fluorescence detection can be determined by performing isoelectric focusing to compare a mobility thereof with those of commercially available markers for isoelectric focusing or to directly measure pH at a position of migration of the labeled peptide. The isoelectric focusing preferably applicable is isoelectric focusing in polyacrylamide slab gel (see […]., Isoelectric Focusing: Theory, Methodology and Applications, Elsevier, Amsterdam, 1983). […] The focusing conditions were as follows: started at […] and focusing the voltage was increased at intervals of 15 minutes to 100 V, 200 V, 400 V, and 600 V. After focusing, fluorescence-labeled oligopeptides in the gel were photographed through an orange filter under illumination with ultraviolet light, thereby checking focusing positions thereof. […] After staining, de-stained with a mixed solvent of methanol and acetic acid to obtain a clear background, thereby checking the focusing positions. FIG. 5,6,and 7 show the focusing positions of the 24 fluorescence-labeled oligopeptides obtained and the isoelectric focusing markers commercially available.

In order of rising “pI Observed” value:
1. DDEHHHKR [No 20, oligopeptide labeled with 5-carboxytetramethylrhodamine]  4.70
2. DEYHKR [No 12, oligopeptide labeled with 5-carboxytetramethylrhodamine]  5.55
3. Glu--His--Lys--Arg (EHKR; printed: Glu--His--Lys--Arg) [No 9, oligopeptide labeled with 5-carboxytetramethylrhodamine]  7.65
4. EHHHKR [No 17, oligopeptide labeled with 5-carboxytetramethylrhodamine]  7.90

In the case of “Tyr--Tyr--His--Lys--Arg (YYHKR; printed: Tyr--Tyr--His--Lys--Arg) [No 8, oligopeptide labeled with 5-carboxytetramethylrhodamine]”, the “pI Observed” value is reported as over 9.30.

Test: not given
Settings: unlabeled protein; cited from earlier work

In order of rising “pI (known) of conventional protein pI marker” value:
1. phycocyanin [reference compound]  4.65
2. β-lactoglobulin B [reference compound]  5.10
3. bovine carbonic anhydrase [reference compound]  6.00
4. human carbonic anhydrase [reference compound]  6.50
5. human hemoglobin A [reference compound]  7.10
